Measurements published in US20180177842A1 (CANIMGUIDE THERAPEUTICS, published 2018).
Ends that are not written are not given here.

How the values were obtained:
[1] = biological target: T1, His-tagged P3028 (human, also: His tag, length and end not given here); assay: PEPSCAN ELISA, peptide on chip;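 also: binding detected by peroxidase ELISA with ABTS, OD405 colour imaged by CCD camera before and after staining, raw OD405 reported as rampo units, air-bubble wells scored 0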
T1 construct: in solution at 0.5 ug/mL, detected with mouse anti-His antibody and rabbit anti-mouse peroxidase (rampo); also called PGE73; His-tag-P3028; not shown: His tag
T1 peptide: VFDEFKPLVEEPQNLIK

[2] = biological target: T2, P3028 (VFDEFKPLVEEPQNLIK, SEQ ID NO: 185), His-tagged (human); assay: PEPSCAN ELISA; peptide on chip, His-P3028 added;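 also: peroxidase color development with ABTS and H2O2 substrate, OD405 imaged by CCD camera with image processing and taken as raw values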
T2 construct: Synthetic fragment of human serum albumin (positions 397-413); used in solution as His-tagged peptide PGE73; also called PGE73; not shown: His-tag
T2 peptide: VFDEFKPLVEEPQNLIK

Binder	RAMPO Score [1]	RAMPO Score [2]
AKLDTFFVKLSLFTER [SEQ ID NO 268]	466 rampo units	
TKLDTFFVKLSLFTER [SEQ ID NO 280]	493 rampo units	
KKKDTFFVKLSLFTER [SEQ ID NO 290]	386 rampo units	
KKTDTFFVKLSLFTER [SEQ ID NO 296]	451 rampo units	
KKFDTFFVKLSLFTER [SEQ ID NO 286]	393 rampo units	
KKCDTFFVKLSLFTER [SEQ ID NO 283]	432 rampo units	
KKLDRFFVKLSLFTER [SEQ ID NO 309]	430 rampo units	
KKLVTFFVKLSLFTER [SEQ ID NO 301]	424 rampo units	
KKLDTNFVKLSLFTER [SEQ ID NO 316]	446 rampo units	
RKLDTFFVKLSLFTER [SEQ ID NO 279]	523 rampo units	
KKLETFFVKLSLFTER [SEQ ID NO 299]	417 rampo units	
PKLDTFFVKLSLFTER [SEQ ID NO 277]	387 rampo units	
KKLDTPFVKLSLFTER [SEQ ID NO 317]	497 rampo units	
KKLDTFLVKLSLFTER [SEQ ID NO 320]	517 rampo units	
KKADTFFVKLSLFTER [SEQ ID NO 282]	427 rampo units	
KKRDTFFVKLSLFTER [SEQ ID NO 294]	370 rampo units	
KKLDQFFVKLSLFTER [SEQ ID NO 308]	535 rampo units	
KKLYTFFVKLSLFTER [SEQ ID NO 303]	422 rampo units	
LKLDTFFVKLSLFTER [SEQ ID NO 274]	449 rampo units	
KKLDPFFVKLSLFTER [SEQ ID NO 307]	427 rampo units	
KKLDNFFVKLSLFTER [SEQ ID NO 306]	436 rampo units	

Binder	RAMPO Score [1]	RAMPO Score [2]
QKLDTFFVKLSLFTER [SEQ ID NO 278]	455 rampo units	
KKLDTFMVKLSLFTER [SEQ ID NO 321]	712 rampo units	
KKSDTFFVKLSLFTER [SEQ ID NO 295]	393 rampo units	
DKLDTFFVKLSLFTER [SEQ ID NO 269]	373 rampo units	
NKLDTFFVKLSLFTER [SEQ ID NO 276]	445 rampo units	
KKHDTFFVKLSLFTER [SEQ ID NO 288]	477 rampo units	
MKLDTFFVKLSLFTER [SEQ ID NO 275]	457 rampo units	
KKLDCFFVKLSLFTER [SEQ ID NO 304]	449 rampo units	
KKVDTFFVKLSLFTER [SEQ ID NO 297]	377 rampo units	
KKLDTMFVKLSLFTER [SEQ ID NO 315]	467 rampo units	
KKLDSFFVKLSLFTER [SEQ ID NO 310]	458 rampo units	
KKLDMFFVKLSLFTER [SEQ ID NO 305]	475 rampo units	
KKNDTFFVKLSLFTER [SEQ ID NO 292]	374 rampo units	
KKLDYFFVKLSLFTER [SEQ ID NO 312]	425 rampo units	
EKLDTFFVKLSLFTER [SEQ ID NO 270]	396 rampo units	
KKLDTAFVKLSLFTER [SEQ ID NO 313]	575 rampo units	
VKLDTFFVKLSLFTER [SEQ ID NO 281]	442 rampo units	
KKEDTFFVKLSLFTER [SEQ ID NO 285]	528 rampo units	
KKMDTFFVKLSLFTER [SEQ ID NO 291]	460 rampo units	
KKGDTFFVKLSLFTER [SEQ ID NO 287]	563 rampo units	
KKLWTFFVKLSLFTER [SEQ ID NO 302]	443 rampo units	

Binder	RAMPO Score [1]	RAMPO Score [2]
KKLDWFFVKLSLFTER [SEQ ID NO 311]	418 rampo units	
KKIDTFFVKLSLFTER [SEQ ID NO 289]	454 rampo units	
GKLDTFFVKLSLFTER [SEQ ID NO 271]	367 rampo units	
HKLDTFFVKLSLFTER [SEQ ID NO 272]	428 rampo units	
KKQDTFFVKLSLFTER [SEQ ID NO 293]	473 rampo units	
KKLDTTFVKLSLFTER [SEQ ID NO 318]	481 rampo units	
KKLITFFVKLSLFTER [SEQ ID NO 300]	430 rampo units	
KKDDTFFVKLSLFTER [SEQ ID NO 284]	492 rampo units	
IKLDTFFVKLSLFTER [SEQ ID NO 273]	483 rampo units	
KKLDTVFVKLSLFTER [SEQ ID NO 319]	547 rampo units	
KKLATFFVKLSLFTER [SEQ ID NO 298]	494 rampo units	
KKLDTIFVKLSLFTER [SEQ ID NO 314]	466 rampo units	
KKLDTFFKKLSLFTER (also called SCF 27; SCF27) [P27 (KKLDTFFKKLSLFTER, SEQ ID NO: 264)]		253 rampo units
TKLDTFFVKLSLFTER [TKLDTFFVKLSLFTER (SEQ ID NO: 280)]		493 rampo units
VKLDTFFVKLSLFTER [VKLDTFFVKLSLFTER (SEQ ID NO: 281)]		442 rampo units
PKLDTFFVKLSLFTER [PKLDTFFVKLSLFTER (SEQ ID NO: 277)]		387 rampo units
YKLDTFFVKLSLFTER [YKLDTFFVKLSLFTER (SEQ ID NO: 483)]		315 rampo units
RKLDTFFVKLSLFTER [RKLDTFFVKLSLFTER (SEQ ID NO: 279)]		523 rampo units
SKLDTFFVKLSLFTER [SKLDTFFVKLSLFTER (SEQ ID NO: 453)]		344 rampo units
QKLDTFFVKLSLFTER [QKLDTFFVKLSLFTER (SEQ ID NO: 278)]		455 rampo units
WKLDTFFVKLSLFTER [WKLDTFFVKLSLFTER (SEQ ID NO: 507)]		284 rampo units
